Data on two substances can be found in publication PMC6922461.

By Kd is commonly meant the constant that tells how readily two partners part at equilibrium. Lower therefore signals tighter binding.

In assay [1] the target is monovalent Strep-Tactin-SpyCatcherΔ. Nature of the assay: SPR. Background: Surface plasmon resonance follows binding to a sensor surface in real time, without labels.
Assay [2] deals with trivalent Strep-Tactin-SpyCatcher. Nature of the assay: SPR.
trivalent Strep-Tactin-SpyCatcher, sequence (P22629 other isoform, or with tags, fused parts or gaps, chain 1 of 2): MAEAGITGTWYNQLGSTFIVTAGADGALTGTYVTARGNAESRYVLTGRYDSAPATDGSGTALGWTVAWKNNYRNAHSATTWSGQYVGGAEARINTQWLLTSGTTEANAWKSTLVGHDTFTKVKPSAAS
trivalent Strep-Tactin-SpyCatcher, sequence (P22629 other isoform, or with tags, fused parts or gaps, chain 2 of 2): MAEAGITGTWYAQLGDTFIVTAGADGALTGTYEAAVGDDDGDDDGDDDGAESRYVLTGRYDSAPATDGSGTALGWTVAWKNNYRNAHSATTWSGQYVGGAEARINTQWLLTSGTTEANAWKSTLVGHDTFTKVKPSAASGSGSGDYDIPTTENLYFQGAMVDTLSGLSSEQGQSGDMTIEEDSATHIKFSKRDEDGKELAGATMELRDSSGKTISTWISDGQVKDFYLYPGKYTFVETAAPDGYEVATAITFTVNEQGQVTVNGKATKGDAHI

monovalent Strep-Tactin-SpyCatcherΔ, sequence (P22629 other isoform, or with tags, fused parts or gaps mutant, chain 1 of 2): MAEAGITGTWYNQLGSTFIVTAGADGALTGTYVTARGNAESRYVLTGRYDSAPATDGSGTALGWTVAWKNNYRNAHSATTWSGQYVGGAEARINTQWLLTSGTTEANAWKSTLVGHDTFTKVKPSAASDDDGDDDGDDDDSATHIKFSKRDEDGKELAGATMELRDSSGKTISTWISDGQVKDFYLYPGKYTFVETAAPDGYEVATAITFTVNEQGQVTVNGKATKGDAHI
monovalent Strep-Tactin-SpyCatcherΔ, sequence (P22629 other isoform, or with tags, fused parts or gaps mutant, chain 2 of 2): as the sequence (P22629 other isoform, or with tags, fused parts or gaps, chain 1 of 2) above, with N12A, S16D, V33E, T34A, R36V counted along it

In assay [1], Strep-tag II–mTFP gave a Kd of 43 µM.

With Twin-Strep-tag–mTFP fusion protein, the Kd in assay [2] was 6.8 µM.
